Data from patent US20210267939A1, “COMPOSITIONS AND METHODS FOR TREATING NAFLD/NASH AND RELATED DISEASE PHENOTYPES” (priority 2018, published 2021).

How the values were obtained:
[1] = target: 147 kDa GST-tagged human ACL (Sigma, SRP0288) (UniProt P53396)
[2] = system: BCKD E1 (an alpha2beta2 heterotetramer)
[3] = system: AKT; assay: AKT ser473 phosphorylation in Fao hepatoma cells; assay type: cell-based; conditions: 10 μM for 1 hour
Method: Cell culture studies: Fao hepatoma cells (Sigma) were cultured in RPMI-1640 (Gibco) containing 10% FBS (Sigma). […] Human embryonic kidney (HEK) 293 cells were used to visualize localization of CMV-ΔMTS-BDK-GFP and control CMV-GFP constructs by confocal microscopy. Cells were plated and transfected in a 96 well glass bottom plate that had been pre-coated with poly-D lysine solution for 1-hour at room temperature. For transfection, cells were incubated in Opti-mem containing 1.5 μl of Mirus, TransIT-293 transfection reagent and 1 μg DNA per well. After 24 hours, mitochondrial and nuclear staining was performed in live cells using Image-IT Live Mito and nuclear labeling Kit (Cell permeant MitoTracker Red CMXRos (579/599 nm) and Hoechst 33342 (350/461 nm) ThermoFisher). Confocal images were captured using a Zeiss LSM 510 inverted confocal microscope using a 405 diode for Hoechst, Argon for GFP, and HeNe 561 for MitoTracker. Images were captured in one plane using a 63× oil objective. Each wavelength was acquired separately and then consolidated after acquisition.
Immunoblotting: Tissue lysates used for immunoblotting were prepared in Cell Lysis Buffer (Cell Signaling Technologies) containing protease inhibitor tablets (Roche), phosphatase inhibitor cocktails 2 and 3 (Sigma), and 10 mM PMSF. […] Immunoblots were developed using a Li-Cor Odyssey CLx and quantified using the Li-Cor software.

[4] = target: V5-tagged human ACL purified from Fao hepatoma cells (UniProt P53396)

## 40 kDa catalytic subunit of bovine PKA (Promega, V5161)
[1]
  incorporation of [gamma-32P]-phosphoryl group into ACL (purified proteins, SDS gel, autoradiograph): PKA caused a clear increase in ^32P labeling of ACL
[2]
  32P phosphorylation of BCKDH (purified proteins, SDS gel, autoradiograph): PKA caused a lesser, but still clear increase in BCKDH phosphorylation

## O=c1[nH]c2ccccc2n1C1CCN(Cc2ccc(-c3[nH]c4cc5ncnc5cc4nc3-c3ccccc3)cc2)CC1 [A6730]
[3]
  phosphorylation of ser473 on AKT: reduce

## MBP-BDK (maltose-binding protein-tagged mature BDK lacking the mitochondrial-targeting pre-sequence; amino acid residue 31-382)
[1]
  incorporation of [gamma-32P]-phosphoryl group into ACL (purified proteins, SDS gel, autoradiograph): MBP-BDK also caused phosphorylation of ACL, albeit to a lesser extent than PKA
[2]
  32P phosphorylation of the purified e1a subunit of BCKDH (purified proteins, SDS gel, autoradiograph): MBP-BDK also caused a robust increase in phosphorylation of the purified e1a subunit of BCKDH

## V5 tagged human BDK purified from Fao hepatoma cells
[4]
  ACL phosphorylation on ser455 measured by immunoblot after mixing of the purified proteins with ATP: This study confirmed that BDK specifically phosphorylates ser455 of the V5-tagged human ACL
